Common to all, as to test: Mass spectroscopy proteomics, semi-quantitative binding affinity of serum proteins (plaqueproteome, Table 2)
Details in all cases: higher number = stronger affinity

The target of experiment [1] is T1, alpha-synuclein plaque particles (Homo sapiens, UniProt P37840).
T1 construct: 140 amino acids polypeptide
The gist of the method: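 AD-subject plasma or serum (800 μL of 50%) mixed with 30 μg preformed alpha-synuclein aggregates for 1 h at 37 °C; Thioflavin S-positive particles isolated by flow sorting. After reduction, acrylamide alkylation and overnight tryptic digestion, serum proteins identified by MS/MS with Sequest and Scaffold.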

Another experiment concerns Tau plaque particles. On the set-up: species or system human. In a few lines:
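Synthetic Tau-74 and Tau-275 peptides (1 mg/mL PBS, 37° C, 2 h) aggregated; 30 μg aggregates incubated with 50% serum/plasma 1 h at 37° C, stained with Thioflavin S, and plaque particles sorted by flow cytometry. Bound proteins trypsin-digested and identified by MS/MS against human UniProt.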

The target of experiment [2] is T2, Abeta-42 plaque particles (Homo sapiens, UniProt P05067).
T2 construct: Abeta 1-42
The gist of the method:
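AD patient serum or plasma (50% in PBS) was incubated with Abeta-42 aggregates (30 μg) for 1 h at 37 °C, then stained with Thioflavin S for 30 min. Labeled particles were FACS-sorted, trypsin/Lys-C digested overnight and analyzed by MS/MS. Sequest searched human UniProt; Scaffold/Protein Prophet validated the identifications.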

In experiment [3] the test system is Low density cholesterol (Chl small) plaque particles. On the set-up: species or system human. In a few lines: (§1)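 Atherosclerotic plasma/serum (50% in PBS) + 30 μg cholesterol aggregates, 1 hr 37° C; FACS gates split low- vs high-density particles. Acetone precipitation, urea/ProteaseMAX, acrylamide alkylation, overnight Trypsin/Lys C at 37° C; Sequest search, Scaffold/Protein Prophet validation.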

Experiment [4] has as its system High Density cholesterol (Chl Large) plaque particles. On the set-up: species or system human. In a few lines: as §1

B1: Thioredoxin (protein)
chain: VKQIESKTAFQEALDAAGDKLVVVDFSATWCGPCKMIKPFFHSLSEKYSNVIFLEVDVDDCQDVASECEVKCMPTFQFFKKGQKVGEFSGANKEKLEATINELV
Turning to B1, in experiment [1], the “Semi-quantitative analysis of proteins binding to different plaque particles: Synuclein” value is on record as 0. Also, in the experiment with Tau plaque particles, the “Semi-quantitative analysis of proteins binding to different plaque particles: Tau” value turned out to be 0. In addition, the “Semi-quantitative analysis of proteins binding to different plaque particles: Abeta-42” value in experiment [2] was found to be 2. In experiment [3], the “Semi-quantitative analysis of proteins binding to different plaque particles: Chl small” value is recorded as 0. The “Semi-quantitative analysis of proteins binding to different plaque particles: Chl Large” value in experiment [4] is 0.

B2: Serpin B3 (protein)
chain: MNSLSEANTKFMFDLFQQFRKSKENNIFYSPISITSALGMVLLGAKDNTAQQIKKVLHFDQVTENTTGKAATYHVDRSGNVHHQFQKLLTEFNKSTDAYELKIANKLFGEKTYLFLQEYLDAIKKFYQTSVESVDFANAPEESRKKINSWVESQTNEKIKNLIPEGNIGSNTTLVLVNAIYFKGQWEKKFNKEDTKEEKFWPNKNTYKSIQMMRQYTSFHFASLEDVQAKVLEIPYKGKDLSMIVLLPNEIDGLQKLEEKLTAEKLMEWTSLQNMRETRVDLHLPRFKVEESYDLKDTLRTMGMVDIFNGDADLSGMTGSRGLVLSGVLHKAFVEVTEEGAEAAAATAVVGFGSSPTSTNEEFHCNHPFLFFIRQNKTNSILFYGRFSSP
As to B2, in experiment [1], the “Semi-quantitative analysis of proteins binding to different plaque particles: Synuclein” value turned out to be 0. Besides, the “Semi-quantitative analysis of proteins binding to different plaque particles: Tau” value with Tau plaque particles amounted to 0. In experiment [2], the “Semi-quantitative analysis of proteins binding to different plaque particles: Abeta-42” value was determined as 2. In addition, the “Semi-quantitative analysis of proteins binding to different plaque particles: Chl small” value in experiment [3] is listed as 0. Further, the “Semi-quantitative analysis of proteins binding to different plaque particles: Chl Large” value in experiment [4] was determined as 0.

B3: Ig heavy chain V-I region HG3 (protein)
chain: QVQLVQSGAEVKKPGASVKVSCKASGYTFTSYYMHWVRQAPGQGLEWMGIINPSGGSTSYAQKFQGRVTMTRDTSTSTVYMELSSLRSEDTAVYYCAR
Turning to B3, in experiment [1], the “Semi-quantitative analysis of proteins binding to different plaque particles: Synuclein” value is 2. Further, the “Semi-quantitative analysis of proteins binding to different plaque particles: Tau” value in the experiment with Tau plaque particles is on record as 1. Also, in experiment [2], the “Semi-quantitative analysis of proteins binding to different plaque particles: Abeta-42” value is reported as 2. Moreover, the “Semi-quantitative analysis of proteins binding to different plaque particles: Chl small” value in experiment [3] was determined as 1. For the same molecule, the “Semi-quantitative analysis of proteins binding to different plaque particles: Chl Large” value in experiment [4] is given as 1.

B4: Heterogeneous nuclear ribonucleoprotein R (protein)
chain: ANQVNGNAVQLKEEEEPMDTSSVTHTEHYKTLIEAGLPQKVAERLDEIFQTGLVAYVDLDERAIDALREFNEEGALSVLQQFKESDLSHVQNKSAFLCGVMKTYRQREKQGSKVQESTKGPDEAKIKALLERTGYTLDVTTGQRKYGGPPPDSVYSGVQPGIGTEVFVGKIPRDLYEDELVPLFEKAGPIWDLRLMMDPLSGQNRGYAFITFCGKEAAQEAVKLCDSYEIRPGKHLGVCISVANNRLFVGSIPKNKTKENILEEFSKVTEGLVDVILYHQPDDKKKNRGFCFLEYEDHKSAAQARRRLMSGKVKVWGNVVTVEWADPVEEPDPEVMAKVKVLFVRNLATTVTEEILEKSFSEFGKLERVKKLKDYAFVHFEDRGAAVKAMDEMNGKEIEGEEIEIVLAKPPDKKRKERQAARQASRSTAYEDYYYHPPPRMPPPIRGRGRGGGRGGYGYPPDYYGYEDYYDDYYGYDYHDYRGGYEDPYYGYDDGYAVRGRGGGRGGRGAPPPPRGRGAPPPRGRAGYSQRGAPLGPPRGSRGGRGGPAQQQRGRGSRGSRGNRGGNVGGKRKADGYNQPDSKRRQTNNQQNWGSQPIAQQPLQQGGDYSGNYGYNNDNQEFYQDTYGQQWK
For the molecule B4, in experiment [1], the “Semi-quantitative analysis of proteins binding to different plaque particles: Synuclein” value was 0. For the same molecule, in the experiment on Tau plaque particles, the “Semi-quantitative analysis of proteins binding to different plaque particles: Tau” value is 0. Besides, in experiment [2], the “Semi-quantitative analysis of proteins binding to different plaque particles: Abeta-42” value is 2. In addition, the “Semi-quantitative analysis of proteins binding to different plaque particles: Chl small” value in experiment [3] is reported as 0. In experiment [4], the “Semi-quantitative analysis of proteins binding to different plaque particles: Chl Large” value is listed as 0.

B5: Cluster of Keratin, type II cytoskeletal 2 epidermal (protein, UniProt P35908 1-639, looked up)
Keratin, type II cytoskeletal …: MSCQISCKSRGRGGGGGGFRGFSSGSAVVSGGSRRSTSSFSCLSRHGGGGGGFGGGGFGSRSLVGLGGTKSISISVAGGGGGFGAAGGFGGRGGGFGGGSSFGGGSGFSGGGFGGGGFGGGRFGGFGGPGGVGGLGGPGGFGPGGYPGGIHEVSVNQSLLQPLNVKVDPEIQNVKAQEREQIKTLNNKFASFIDKVRFLEQQNQVLQTKWELLQQMNVGTRPINLEPIFQGYIDSLKRYLDGLTAERTSQNSELNNMQDLVEDYKKKYEDEINKRTAAENDFVTLKKDVDNAYMIKVELQSKVDLLNQEIEFLKVLYDAEISQIHQSVTDTNVILSMDNSRNLDLDSIIAEVKAQYEEIAQRSKEEAEALYHSKYEELQVTVGRHGDSLKEIKIEISELNRVIQRLQGEIAHVKKQCKNVQDAIADAEQRGEHALKDARNKLNDLEEALQQAKEDLARLLRDYQELMNVKLALDVEIATYRKLLEGEECRMSGDLSSNVTVSVTSSTISSNVASKAAFGGSGGRGSSSGGGYSSGSSSYGSGGRQSGSRGGSGGGGSISGGGYGSGGGSGGRYGSGGGSKGGSISGGGYGSGGGKHSSGGGSRGGSSSGGGYGSGGGGSSSVKGSSGEAFGSSVTFSFR
Regarding B5, the “Semi-quantitative analysis of proteins binding to different plaque particles: Synuclein” value in experiment [1] is on record as 3. The “Semi-quantitative analysis of proteins binding to different plaque particles: Tau” value in the experiment on Tau plaque particles is reported as 24. In addition, the “Semi-quantitative analysis of proteins binding to different plaque particles: Abeta-42” value in experiment [2] was 171. Moreover, the “Semi-quantitative analysis of proteins binding to different plaque particles: Chl small” value in experiment [3] came out at 20. For the same molecule, the “Semi-quantitative analysis of proteins binding to different plaque particles: Chl Large” value in experiment [4] is recorded as 14.

B6: Apolipoprotein F (protein)
chain: SLPTEDCENEKEQAVHNVVQLLPGVGTFYNLGTALYYATQNCLGKARERGRDGAIDLGYDLLMTMAGMSGGPMGLAISAALKPALRSGVQQLIQYYQDQKDANISQPETTKEGLRAISDVSDLEETTTLASFISEVVSSAPYWGWAIIKSYDLDPGAGSLEI
As to B6, in experiment [1], the “Semi-quantitative analysis of proteins binding to different plaque particles: Synuclein” value is 2. In the experiment with Tau plaque particles, the “Semi-quantitative analysis of proteins binding to different plaque particles: Tau” value is reported as 1. For the same molecule, the “Semi-quantitative analysis of proteins binding to different plaque particles: Abeta-42” value in experiment [2] is reported as 0. Also, the “Semi-quantitative analysis of proteins binding to different plaque particles: Chl small” value in experiment [3] turned out to be 1. Besides, the “Semi-quantitative analysis of proteins binding to different plaque particles: Chl Large” value in experiment [4] turned out to be 0.

B7: Isoform 2 of C4b-binding protein beta chain (protein)
chain: ASDEHCPELPPVDNSIFVAKEVEGQILGTYVCIKGYHLVGKKTLFCNASKEWDNTTTECRLGHCPDPVLVNGEFSSSGPVNVSDKITFMCNDHYILKGSNRSQCLEDHTWAPPFPICKSRDCDPPGNPVHGYFEGNNFTLGSTISYYCEDRYYLVGVQEQQCVDGEWSSALPVCKLIQEAPKPECEKALLAFQESKNLCEAMENFMQQLKESGMTMEELKYSLELKKAELKAKLL
As to B7, the “Semi-quantitative analysis of proteins binding to different plaque particles: Synuclein” value in experiment [1] is 0. Besides, the “Semi-quantitative analysis of proteins binding to different plaque particles: Tau” value with Tau plaque particles is recorded as 0. Also, in experiment [2], the “Semi-quantitative analysis of proteins binding to different plaque particles: Abeta-42” value was determined as 0. For the same molecule, in experiment [3], the “Semi-quantitative analysis of proteins binding to different plaque particles: Chl small” value turned out to be 1. Besides, the “Semi-quantitative analysis of proteins binding to different plaque particles: Chl Large” value in experiment [4] is on record as 0.

B8: Immunoglobulin lambda-like polypeptide 1 (protein)
chain: LLRPTAASQSRALGPGAPGGSSRSSLRSRWGRFLLQRGSWTGPRCWPRGFQSKHNSVTHVFGSGTQLTVLSQPKATPSVTLFPPSSEELQANKATLVCLMNDFYPGILTVTWKADGTPITQGVEMTTPSKQSNNKYAASSYLSLTPEQWRSRRSYSCQVMHEGSTVEKTVAPAECS
As to B8, the “Semi-quantitative analysis of proteins binding to different plaque particles: Synuclein” value in experiment [1] amounted to 0. In addition, the “Semi-quantitative analysis of proteins binding to different plaque particles: Tau” value in the experiment on Tau plaque particles was determined as 0. For the same molecule, in experiment [2], the “Semi-quantitative analysis of proteins binding to different plaque particles: Abeta-42” value stood at 0. The “Semi-quantitative analysis of proteins binding to different plaque particles: Chl small” value in experiment [3] is given as 1. Also, in experiment [4], the “Semi-quantitative analysis of proteins binding to different plaque particles: Chl Large” value came out at 0.

B9: Isoform 2 of RNA-binding protein 39 (protein)
chain: ADDIDIEAMLEAPYKKDENKLSSANGHEERSKKRKKSKSRSRSHERKRSKSKERKRSRDRERKKSKSRERKRSRSKERRRSRSRSRDRRFRGRYRSPYSGPKFNSAIRGKIGLPHSIKLSRRRSRSKSPFRKDKSPVREPIDNLTPEERDARTVFCMQLAARIRPRDLEEFFSTVGKVRDVRMISDRNSRRSKGIAYVEFVDVSSVPLAIGLTGQRVLGVPIIVQASQAEKNRAAAMANNLQKGSAGPMRLYVGSLHFNITEDMLRGIFEPFGRIESIQLMMDSETGRSKGYGFITFSDSECAKKALEQLNGFELAGRPMKVGHVTERTDASSASSFLDSDELERTGIDLGTTGRLQLMARLAEGTGLQIPPAAQQALQMSGSLAFGAVADLQTRLSQQTEASALAAAASVQPLATQCFQLSNMFNPQTEEEVGWDTEIKDDVIEECNKHGGVIHIYVDKNSAQGNVYVKCPSIAAAIAAVNALHGRWFAGKMITAAYVPLPTYHNLFPDSMTATQLLVPSRR
B9: the “Semi-quantitative analysis of proteins binding to different plaque particles: Synuclein” value in experiment [1] came to 0. In addition, in the experiment with Tau plaque particles, the “Semi-quantitative analysis of proteins binding to different plaque particles: Tau” value is reported as 0. Also, the “Semi-quantitative analysis of proteins binding to different plaque particles: Abeta-42” value in experiment [2] is 2. In experiment [3], the “Semi-quantitative analysis of proteins binding to different plaque particles: Chl small” value was determined as 0. Moreover, the “Semi-quantitative analysis of proteins binding to different plaque particles: Chl Large” value in experiment [4] is recorded as 0.

Values taken from patent US9618524B2, “Method, composition, isolation and identification of a plaque particle and related biomarker” (Plaxgen Inc., priority 2012, dated 2017).
